B1: SV5-V (natural protein)
chain: MDPTDLSFSPDEINKLIETGLNTVEYFTSQQVTGTSSLGKNTIPPGVTGLLTNAAEAKIQESTNHQKGSVGGGAKPKKPRPKIAIVPADDKTVPGKPIPNPLLGLDSTPSTQTVLDLSGKTLPSGSYKGVKLAKFGKENLMTRFIEEPRENPIATSSPIDFKRGRDTGGFHRREYSIGWVGDEVKVTEWCNPSCSPITAAARRFECTCHQCPVTCSECERDT
notes: also called V protein of paramyxovirus SV5; source: E. coli Rosetta, purified (glutathione agarose, thrombin cleavage, MonoQ, Superdex 75); not shown: GST, N-terminal, cleaved

Assays:
GST-DDB1 [1] = target: GST-DDB1 (UniProt Q16531); experiment: AlphaScreen or HTRF; TR-FRET competition; 3 nM coexpressed His-HBx:GST-DDB1 complex preincubated with increasing untagged competitor 1 h at room temperature; Eu-cryptate anti-His and d2 anti-GST antibodies; 20 mM HEPES pH 7.2, 50 mM NaCl, 0.1 mg/ml BSA, 0.01% Brij-35, 0.5 mM TCEP
GST-DDB1 [2] = target: GST-DDB1 (UniProt Q16531); experiment: AlphaScreen or HTRF; TR-FRET competition; 5 nM His-HBx and 5 nM GST-DDB1 expressed separately, preincubated with increasing untagged competitor 30 min at room temperature; Eu-cryptate anti-His and d2 anti-GST antibodies; 25 mM HEPES pH 7.2, 400 mM NaCl, 0.1 mg/ml BSA, 0.01% Brij-35, 0.5 mM TCEP
[3] = target: His-HBx coexpressed with GST-DDB1 (hepatitis B virus (genotype D)) (UniProt P03165); experiment: AlphaScreen or HTRF; TR-FRET competition; 3 nM coexpressed His-HBx:GST-DDB1 complex preincubated with increasing untagged competitor 1 h at room temperature; Eu-cryptate anti-His and d2 anti-GST antibodies; 20 mM HEPES pH 7.2, 50 mM NaCl, 0.1 mg/ml BSA, 0.01% Brij-35, 0.5 mM TCEP
[4] = target: His-HBx expressed alone (detergent solubilized) (hepatitis B virus (genotype D)) (UniProt P03165); experiment: AlphaScreen or HTRF; TR-FRET competition; 5 nM His-HBx and 5 nM GST-DDB1 expressed separately, preincubated with increasing untagged competitor 30 min at room temperature; Eu-cryptate anti-His and d2 anti-GST antibodies; 25 mM HEPES pH 7.2, 400 mM NaCl, 0.1 mg/ml BSA, 0.01% Brij-35, 0.5 mM TCEP
DDB1 = DDB1 (UniProt Q16531); experiment: AUC; sedimentation velocity at 20 C, absorbance at 280 nm, c(s) distribution (SEDFIT), each protein in its final storage buffer
GST-DDB1 [5] = target: T1, GST-DDB1 (UniProt Q16531 1-1140); experiment: AlphaScreen or HTRF; TR-FRET competition; 3 nM coexpressed His-HBx:GST-DDB1 complex preincubated with increasing untagged competitor 1 h at room temperature; Eu-cryptate anti-His and d2 anti-GST antibodies; 20 mM HEPES pH 7.2, 50 mM NaCl, 0.1 mg/ml BSA, 0.01% Brij-35, 0.5 mM TCEP; conditions: both partners purified
T1 construct: also called glutathione S-transferase (GST)-DDB1; not shown: GST, N-terminal, kept

GST-DDB1 [6] = target: T1, GST-DDB1; experiment: AlphaScreen or HTRF; TR-FRET competition; 5 nM His-HBx and 5 nM GST-DDB1 expressed separately, preincubated with increasing untagged competitor 30 min at room temperature; Eu-cryptate anti-His and d2 anti-GST antibodies; 25 mM HEPES pH 7.2, 400 mM NaCl, 0.1 mg/ml BSA, 0.01% Brij-35, 0.5 mM TCEP; conditions: both partners purified

| Molecule | IC50 (GST-DDB1 [1]) [nM] | IC50 (GST-DDB1 [5]) [nM] | IC50 (GST-DDB1 [6]) [nM] | other results |
| --- | --- | --- | --- | --- |
| recombinant untagged HBx (from UniProt P03165 1-154) (natural protein) | 9 |  |  | IC50 (GST-DDB1 [2]): 61 nM |
| HBx H-box peptide (R96E mutant) (from UniProt P03165 88-102) (peptide; other documents disagree on this pair) | > 100000 |  |  |  |
| DDB1 (from UniProt Q16531 1-1140) (natural protein) |  |  |  | IC50 [3]: 16 nM; IC50 [4]: 204 nM |
| HBx coexpressed with DDB1 (HBx:DDB1 coexpressed complex) (from UniProt P03165 1-154) (natural protein) |  |  |  | stoichiometry N (DDB1): 1 |
| ILPKVLHKRTLGLSA [HBx H-box peptide (wild type)] |  | 1560 | 5000 |  |
| B1 |  | 4 | 7 |  |
